Data from patent US20140274782A1, “AFFINITY REAGENTS AND METHODS FOR DETECTION, PURIFICATION, AND PROTEOMIC ANALYSIS OF METHYLATED PROTEINS” (The Board of Trustees of the Leland Stanford Junior …, priority 2013, published 2014).

Legend:
[1] = target: T1, G9a and GLP (Homo sapiens, UniProt Q96KQ7+Q9H9B1); assay: Triple SILAC pull-down after UNC0638 treatment of 293T cells, DMSO/UNC0638 ratio of protein captured by 3×MBT; format: cell-based; set-up: cells were treated for 24 hours with UNC0638 at 2.5 μM or DMSO vehicle control; endogenous in cells; host or cells: HEK 293T; details: for Relative to UNC0638 UNC Heavy / Relative to UNC0638 UNC Light: SILAC ratio DMSO/UNC0638 of protein pulled down with 3xMBT; for Relative to UNC0638 UNC Heavy: UNC0638 in heavy SILAC media; for Relative to UNC0638 UNC Light: UNC0638 in light SILAC media; for Relative to UNC0638 Average: average of UNC Light and UNC Heavy experiments;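 as to all read-outs here: mass spectrometry (Q-Exactive) SILAC quantitation, DMSO/UNC0638 ratio computed after subtracting 3×MBTD355N mutant pull-down background, only proteins with at least twofold 3×MBT over mutant signal considered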
T1 sequence (Q96KQ7 2-1210 limits assumed): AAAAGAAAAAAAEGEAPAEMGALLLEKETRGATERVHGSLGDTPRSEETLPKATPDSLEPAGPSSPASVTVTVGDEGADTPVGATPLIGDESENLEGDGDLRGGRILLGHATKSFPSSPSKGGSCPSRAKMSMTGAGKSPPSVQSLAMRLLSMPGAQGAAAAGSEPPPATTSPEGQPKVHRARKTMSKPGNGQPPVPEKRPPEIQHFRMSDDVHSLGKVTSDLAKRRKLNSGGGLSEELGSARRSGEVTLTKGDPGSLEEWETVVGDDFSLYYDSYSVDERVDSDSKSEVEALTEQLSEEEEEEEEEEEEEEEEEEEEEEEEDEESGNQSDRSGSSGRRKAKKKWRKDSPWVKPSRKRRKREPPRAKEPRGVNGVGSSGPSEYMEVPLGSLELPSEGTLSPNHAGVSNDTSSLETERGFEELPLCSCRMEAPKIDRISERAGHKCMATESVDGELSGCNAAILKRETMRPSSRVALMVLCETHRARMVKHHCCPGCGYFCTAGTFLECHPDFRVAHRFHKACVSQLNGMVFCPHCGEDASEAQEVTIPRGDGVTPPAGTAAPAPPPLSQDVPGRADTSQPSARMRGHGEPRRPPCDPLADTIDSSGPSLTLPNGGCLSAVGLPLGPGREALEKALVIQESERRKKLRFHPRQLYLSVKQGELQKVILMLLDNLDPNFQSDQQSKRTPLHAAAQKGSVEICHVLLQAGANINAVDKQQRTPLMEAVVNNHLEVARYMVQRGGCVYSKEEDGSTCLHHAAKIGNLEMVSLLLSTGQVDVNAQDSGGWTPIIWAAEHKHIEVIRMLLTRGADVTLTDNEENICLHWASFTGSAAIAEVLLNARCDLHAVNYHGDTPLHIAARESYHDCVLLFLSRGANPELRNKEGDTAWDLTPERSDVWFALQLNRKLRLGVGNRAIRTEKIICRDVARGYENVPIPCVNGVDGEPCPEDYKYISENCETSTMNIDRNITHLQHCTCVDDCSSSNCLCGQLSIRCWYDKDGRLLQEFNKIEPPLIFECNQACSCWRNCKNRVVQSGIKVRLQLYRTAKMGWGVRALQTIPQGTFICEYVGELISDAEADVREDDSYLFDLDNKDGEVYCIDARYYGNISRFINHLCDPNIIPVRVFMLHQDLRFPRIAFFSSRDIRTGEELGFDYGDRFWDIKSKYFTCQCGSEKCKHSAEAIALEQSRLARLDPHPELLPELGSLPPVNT
T1 sequence (Q9H9B1 2-1298 limits assumed): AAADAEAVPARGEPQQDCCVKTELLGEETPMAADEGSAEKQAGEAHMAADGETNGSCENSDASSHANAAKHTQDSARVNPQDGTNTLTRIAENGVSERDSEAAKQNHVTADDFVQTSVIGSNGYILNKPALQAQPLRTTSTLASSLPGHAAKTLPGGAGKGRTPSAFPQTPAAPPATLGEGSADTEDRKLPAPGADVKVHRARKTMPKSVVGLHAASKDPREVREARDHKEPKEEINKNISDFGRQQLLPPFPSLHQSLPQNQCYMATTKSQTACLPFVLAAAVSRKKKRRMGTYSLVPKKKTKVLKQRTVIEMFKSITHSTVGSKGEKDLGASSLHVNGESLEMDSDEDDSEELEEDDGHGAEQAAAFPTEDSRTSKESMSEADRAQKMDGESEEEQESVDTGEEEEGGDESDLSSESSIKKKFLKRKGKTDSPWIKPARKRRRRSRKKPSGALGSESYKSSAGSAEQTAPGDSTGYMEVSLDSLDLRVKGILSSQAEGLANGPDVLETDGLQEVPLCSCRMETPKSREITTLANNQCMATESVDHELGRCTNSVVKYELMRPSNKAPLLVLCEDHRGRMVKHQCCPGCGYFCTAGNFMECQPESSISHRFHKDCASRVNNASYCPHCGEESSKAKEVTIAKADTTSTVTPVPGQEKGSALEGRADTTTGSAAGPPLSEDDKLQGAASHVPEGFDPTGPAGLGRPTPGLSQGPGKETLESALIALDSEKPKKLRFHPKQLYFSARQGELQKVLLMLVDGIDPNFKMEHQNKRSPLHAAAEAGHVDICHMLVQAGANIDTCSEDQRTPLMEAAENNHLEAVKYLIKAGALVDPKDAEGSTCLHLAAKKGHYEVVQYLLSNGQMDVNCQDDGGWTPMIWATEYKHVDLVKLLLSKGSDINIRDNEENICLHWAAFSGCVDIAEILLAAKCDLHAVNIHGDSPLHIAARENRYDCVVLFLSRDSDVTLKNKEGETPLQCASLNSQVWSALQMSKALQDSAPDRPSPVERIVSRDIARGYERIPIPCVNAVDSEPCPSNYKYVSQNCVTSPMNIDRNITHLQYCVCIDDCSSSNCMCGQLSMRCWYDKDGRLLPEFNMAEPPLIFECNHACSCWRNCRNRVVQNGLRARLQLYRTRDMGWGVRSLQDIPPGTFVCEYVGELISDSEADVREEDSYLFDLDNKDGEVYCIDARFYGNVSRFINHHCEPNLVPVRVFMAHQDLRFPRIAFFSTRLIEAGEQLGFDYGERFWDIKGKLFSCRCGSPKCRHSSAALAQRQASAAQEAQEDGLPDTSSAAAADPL

[2] = system: 3×MBT domain of L3MBTL1; assay: Triple SILAC pull-down, 3xMBT/3xMBTD355N ratio (cytoplasmic, nuclear and chromatin fractions of 293T cells); format: binding, human; details: SILAC ratio, pull-down 3xMBT vs 3xMBTD355N; for 3xMBT/D355N UNC Heavy: experiment with UNC0638 in heavy SILAC media; for 3xMBT/D355N UNC Light: experiment with UNC0638 in light SILAC media;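 as to all read-outs here: proteins quantified with MaxQuant, requiring at least two unique peptides and quantification in both label directions, normalized to the mean of proteins from a digested loading control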

Molecule | Relative to UNC0638 UNC Heavy [1] | Relative to UNC0638 UNC Light [1] | Relative to UNC0638 Average [1] | 3xMBT/D355N UNC Heavy [2] | 3xMBT/D355N UNC Light [2]
ILF3 (protein, UniProt Q12906 1-894, looked up) Interleukin enhancer-binding …: MRPMRIFVNDDRHVMAKHSSVYPTQEELEAVQNMVSHTERALKAVSDWIDEQEKGSSEQAESDNMDVPPEDDSKEGAGEQKTEHMTRTLRGVMRVGLVAKGLLLKGDLDLELVLLCKEKPTTALLDKVADNLAIQLAAVTEDKYEILQSVDDAAIVIKNTKEPPLSLTIHLTSPVVREEMEKVLAGETLSVNDPPDVLDRQKCLAALASLRHAKWFQARANGLKSCVIVIRVLRDLCTRVPTWGPLRGWPLELLCEKSIGTANRPMGAGEALRRVLECLASGIVMPDGSGIYDPCEKEATDAIGHLDRQQREDITQSAQHALRLAAFGQLHKVLGMDPLPSKMPKKPKNENPVDYTVQIPPSTTYAITPMKRPMEEDGEEKSPSKKKKKIQKKEEKAEPPQAMNALMRLNQLKPGLQYKLVSQTGPVHAPIFTMSVEVDGNSFEASGPSKKTAKLHVAVKVLQDMGLPTGAEGRDSSKGEDSAEETEAKPAVVAPAPVVEAVSTPSAAFPSDATAEQGPILTKHGKNPVMELNEKRRGLKYELISETGGSHDKRFVMEVEVDGQKFQGAGSNKKVAKAYAALAALEKLFPDTPLALDANKKKRAPVPVRGGPKFAAKPHNPGFGMGGPMHNEVPPPPNLRGRGRGGSIRGRGRGRGFGGANHGGYMNAGAGYGSYGYGGNSATAGYSQFYSNGGHSGNASGGGGGGGGGSSGYGSYYQGDNYNSPVPPKHAGKKQPHGGQQKPSYGSGYQSHQGQQQSYNQSPYSNYGPPQGKQKGYNHGQGSYSYSNSYNSPGGGGGSDYNYESKFNYSGSGGRSGGNSYGSGGASYNPGSHGGYGGGSGGGSSYQGKQGGYSQSNYNSPGSGQNYSGPPSSYQSSQGGYGRNADHSMNYQYR | 0.11 log base 2 | 0.23 log base 2 | 0.17 log base 2 | 3.53 log base 2 | 4.28 log base 2
PCBP2 (protein, UniProt Q15366 1-365, looked up) Poly(rC)-binding protein 2: MDTGVIEGGLNVTLTIRLLMHGKEVGSIIGKKGESVKKMREESGARINISEGNCPERIITLAGPTNAIFKAFAMIIDKLEEDISSSMTNSTAASRPPVTLRLVVPASQCGSLIGKGGCKIKEIRESTGAQVQVAGDMLPNSTERAITIAGIPQSIIECVKQICVVMLETLSQSPPKGVTIPYRPKPSSSPVIFAGGQDRYSTGSDSASFPHTTPSMCLNPDLEGPPLEAYTIQGQYAIPQPDLTKLHQLAMQQSHFPMTHGNTGFSGIESSSPEVKGYWGLDASAQTTSHELTIPNDLIGCIIGRQGAKINEIRQMSGAQIKIANPVEGSTDRQVTITGSAASISLAQYLINVRLSSETGGMGSS | 0.13 log base 2 | 0.21 log base 2 | 0.17 log base 2 | 1.88 log base 2 | 2.41 log base 2
HNRNPA1 (protein, UniProt P09651 1-372, looked up) Heterogeneous nuclear …: MSKSESPKEPEQLRKLFIGGLSFETTDESLRSHFEQWGTLTDCVVMRDPNTKRSRGFGFVTYATVEEVDAAMNARPHKVDGRVVEPKRAVSREDSQRPGAHLTVKKIFVGGIKEDTEEHHLRDYFEQYGKIEVIEIMTDRGSGKKRGFAFVTFDDHDSVDKIVIQKYHTVNGHNCEVRKALSKQEMASASSSQRGRSGSGNFGGGRGGGFGGNDNFGRGGNFSGRGGFGGSRGGGGYGGSGDGYNGFGNDGGYGGGGPGYSGGSRGYGSGGQGYGNQGSGYGGSGSYDSYNNGGGGGFGGGSGSNFGGGGSYNDFGNYNNQSSNFGPMKGGNFGGRSSGPYGGGGQYFAKPRNQGGYGGSSSSSSYGSGRRF | 0.09 log base 2 | 0.25 log base 2 | 0.17 log base 2 | 3.75 log base 2 | 4.25 log base 2
CTTN (protein, UniProt Q14247 1-550, looked up) Src substrate cortactin: MWKASAGHAVSIAQDDAGADDWETDPDFVNDVSEKEQRWGAKTVQGSGHQEHINIHKLRENVFQEHQTLKEKELETGPKASHGYGGKFGVEQDRMDKSAVGHEYQSKLSKHCSQVDSVRGFGGKFGVQMDRVDQSAVGFEYQGKTEKHASQKDYSSGFGGKYGVQADRVDKSAVGFDYQGKTEKHESQRDYSKGFGGKYGIDKDKVDKSAVGFEYQGKTEKHESQKDYVKGFGGKFGVQTDRQDKCALGWDHQEKLQLHESQKDYKTGFGGKFGVQSERQDSAAVGFDYKEKLAKHESQQDYSKGFGGKYGVQKDRMDKNASTFEDVTQVSSAYQKTVPVEAVTSKTSNIRANFENLAKEKEQEDRRKAEAERAQRMAKERQEQEEARRKLEEQARAKTQTPPVSPAPQPTEERLPSSPVYEDAASFKAELSYRGPVSGTEPEPVYSMEAADYREASSQQGLAYATEAVYESAEAPGHYPAEDSTYDEYENDLGITAVALYDYQAAGDDEISFDPDDIITNIEMIDDGWWRGVCKGRYGLFPANYVELRQ | 0.26 log base 2 | 0.08 log base 2 | 0.17 log base 2 | 1.52 log base 2 | 2.75 log base 2
SEPT2 (protein, UniProt Q15019 1-361, looked up) Septin-2: MSKQQPTQFINPETPGYVGFANLPNQVHRKSVKKGFEFTLMVVGESGLGKSTLINSLFLTDLYPERVIPGAAEKIERTVQIEASTVEIEERGVKLRLTVVDTPGYGDAINCRDCFKTIISYIDEQFERYLHDESGLNRRHIIDNRVHCCFYFISPFGHGLKPLDVAFMKAIHNKVNIVPVIAKADTLTLKERERLKKRILDEIEEHNIKIYHLPDAESDEDEDFKEQTRLLKASIPFSVVGSNQLIEAKGKKVRGRLYPWGVVEVENPEHNDFLKLRTMLITHMQDLQEVTQDLHYENFRSERLKRGGRKVENEDMNKDQILLEKEAELRRMQEMIARMQAQMQMQMQGGDGDGGALGHHV | 0.21 log base 2 | 0.12 log base 2 | 0.17 log base 2 | 1.89 log base 2 | 2.49 log base 2
